{"source": "the supplement of paper PMC10567573", "parents": {"B1": {"name": "PLAGL1 (parent)", "chain": "EKPPSGTKEKKHQCDHCERCFYTR"}}}
{"variants_of": "B1", "assay": "protein stability index of a GFP-peptide fusion (GPS, HEK-293T) (PSI 1-6); higher = more stable", "conditions": "c terminus: a fixed tail appended"}
{"variant": "EKPWSGTKEKKHQCDHCERCFYTR", "note": "[P4W]", "protein stability index": 2.96}
{"variant": "EKPESGTKEKKHQCDHCERCFYTR", "note": "[P4E]", "protein stability index": 3.88}
{"variant": "EKPASGTKEKKHQCDHCERCFYTR", "note": "[P4A]", "protein stability index": 3.79}
{"variant": "EKPRSGTKEKKHQCDHCERCFYTR", "note": "[P4R]", "protein stability index": 4.31}
{"variant": "EKPFSGTKEKKHQCDHCERCFYTR", "note": "[P4F]", "protein stability index": 3.44}
{"variant": "EKPCSGTKEKKHQCDHCERCFYTR", "note": "[P4C]", "protein stability index": 3.74}
{"variant": "EKPQSGTKEKKHQCDHCERCFYTR", "note": "[P4Q]", "protein stability index": 3.48}
{"variant": "EKPTSGTKEKKHQCDHCERCFYTR", "note": "[P4T]", "protein stability index": 3.44}
{"variant": "EKPNSGTKEKKHQCDHCERCFYTR", "note": "[P4N]", "protein stability index": 3.58}
{"variant": "EKPSSGTKEKKHQCDHCERCFYTR", "note": "[P4S]", "protein stability index": 3.99}
{"variant": "EKPGSGTKEKKHQCDHCERCFYTR", "note": "[P4G]", "protein stability index": 3.99}
{"variant": "EKPDSGTKEKKHQCDHCERCFYTR", "note": "[P4D]", "protein stability index": 4.31}
{"variant": "EKPYSGTKEKKHQCDHCERCFYTR", "note": "[P4Y]", "protein stability index": 3.41}
{"variant": "EKPHSGTKEKKHQCDHCERCFYTR", "note": "[P4H]", "protein stability index": 3.56}
{"variant": "EKPMSGTKEKKHQCDHCERCFYTR", "note": "[P4M]", "protein stability index": 3.45}
{"variant": "EKPKSGTKEKKHQCDHCERCFYTR", "note": "[P4K]", "protein stability index": 3.53}
{"variant": "EKPLSGTKEKKHQCDHCERCFYTR", "note": "[P4L]", "protein stability index": 3.28}
{"variant": "EKPVSGTKEKKHQCDHCERCFYTR", "note": "[P4V]", "protein stability index": 3.19}
{"variant": "EKPISGTKEKKHQCDHCERCFYTR", "note": "[P4I]", "protein stability index": 3.57}
{"variant": "EKPPSHTKEKKHQCDHCERCFYTR", "note": "[G6H]", "protein stability index": 3.68}
{"variant": "EKPPSMTKEKKHQCDHCERCFYTR", "note": "[G6M]", "protein stability index": 3.39}
{"variant": "EKPPSITKEKKHQCDHCERCFYTR", "note": "[G6I]", "protein stability index": 3.17}
{"variant": "EKPPSDTKEKKHQCDHCERCFYTR", "note": "[G6D]", "protein stability index": 3.88}
{"variant": "EKPPSATKEKKHQCDHCERCFYTR", "note": "[G6A]", "protein stability index": 3.32}
{"variant": "EKPPSNTKEKKHQCDHCERCFYTR", "note": "[G6N]", "protein stability index": 3.36}
{"variant": "EKPPSKTKEKKHQCDHCERCFYTR", "note": "[G6K]", "protein stability index": 3.52}
{"variant": "EKPPSSTKEKKHQCDHCERCFYTR", "note": "[G6S]", "protein stability index": 3.27}
{"variant": "EKPPSETKEKKHQCDHCERCFYTR", "note": "[G6E]", "protein stability index": 4.09}
{"variant": "EKPPSCTKEKKHQCDHCERCFYTR", "note": "[G6C]", "protein stability index": 4.57}
{"variant": "EKPPSPTKEKKHQCDHCERCFYTR", "note": "[G6P]", "protein stability index": 4.37}
{"variant": "EKPPSYTKEKKHQCDHCERCFYTR", "note": "[G6Y]", "protein stability index": 2.92}
{"variant": "EKPPSRTKEKKHQCDHCERCFYTR", "note": "[G6R]", "protein stability index": 3.07}
{"variant": "EKPPSVTKEKKHQCDHCERCFYTR", "note": "[G6V]", "protein stability index": 4}
{"variant": "EKPPSTTKEKKHQCDHCERCFYTR", "note": "[G6T]", "protein stability index": 4.61}
{"variant": "EKPPSQTKEKKHQCDHCERCFYTR", "note": "[G6Q]", "protein stability index": 3.16}
{"variant": "EKPPSLTKEKKHQCDHCERCFYTR", "note": "[G6L]", "protein stability index": 3.92}
{"variant": "EKPPSWTKEKKHQCDHCERCFYTR", "note": "[G6W]", "protein stability index": 3.13}
{"variant": "EKPPSFTKEKKHQCDHCERCFYTR", "note": "[G6F]", "protein stability index": 3.79}
{"variant": "EKPPSGTWEKKHQCDHCERCFYTR", "note": "[K8W]", "protein stability index": 3.35}
{"variant": "EKPPSGTGEKKHQCDHCERCFYTR", "note": "[K8G]", "protein stability index": 3.29}
{"variant": "EKPPSGTEEKKHQCDHCERCFYTR", "note": "[K8E]", "protein stability index": 4.4}
{"variant": "EKPPSGTFEKKHQCDHCERCFYTR", "note": "[K8F]", "protein stability index": 2.9}
{"variant": "EKPPSGTHEKKHQCDHCERCFYTR", "note": "[K8H]", "protein stability index": 3.88}
{"variant": "EKPPSGTMEKKHQCDHCERCFYTR", "note": "[K8M]", "protein stability index": 4.27}
{"variant": "EKPPSGTPEKKHQCDHCERCFYTR", "note": "[K8P]", "protein stability index": 4.25}
{"variant": "EKPPSGTDEKKHQCDHCERCFYTR", "note": "[K8D]", "protein stability index": 4.33}
{"variant": "EKPPSGTSEKKHQCDHCERCFYTR", "note": "[K8S]", "protein stability index": 3.66}
{"variant": "EKPPSGTYEKKHQCDHCERCFYTR", "note": "[K8Y]", "protein stability index": 3.47}
{"variant": "EKPPSGTQEKKHQCDHCERCFYTR", "note": "[K8Q]", "protein stability index": 4.78}
{"variant": "EKPPSGTIEKKHQCDHCERCFYTR", "note": "[K8I]", "protein stability index": 3.1}
{"variant": "EKPPSGTVEKKHQCDHCERCFYTR", "note": "[K8V]", "protein stability index": 3.9}
{"variant": "EKPPSGTTEKKHQCDHCERCFYTR", "note": "[K8T]", "protein stability index": 3.48}
{"variant": "EKPPSGTLEKKHQCDHCERCFYTR", "note": "[K8L]", "protein stability index": 3.04}
{"variant": "EKPPSGTCEKKHQCDHCERCFYTR", "note": "[K8C]", "protein stability index": 4.24}
{"variant": "EKPPSGTNEKKHQCDHCERCFYTR", "note": "[K8N]", "protein stability index": 3.77}
{"variant": "EKPPSGTAEKKHQCDHCERCFYTR", "note": "[K8A]", "protein stability index": 3.37}
{"variant": "EKPPSGTREKKHQCDHCERCFYTR", "note": "[K8R]", "protein stability index": 3.48}
{"variant": "EKHPSGTKEKKHQCDHCERCFYTR", "note": "[P3H]", "protein stability index": 3.33}
{"variant": "EKKPSGTKEKKHQCDHCERCFYTR", "note": "[P3K]", "protein stability index": 3.6}
{"variant": "EKFPSGTKEKKHQCDHCERCFYTR", "note": "[P3F]", "protein stability index": 3.54}
{"variant": "EKLPSGTKEKKHQCDHCERCFYTR", "note": "[P3L]", "protein stability index": 3.32}
{"variant": "EKVPSGTKEKKHQCDHCERCFYTR", "note": "[P3V]", "protein stability index": 3.97}
{"variant": "EKQPSGTKEKKHQCDHCERCFYTR", "note": "[P3Q]", "protein stability index": 3.8}
{"variant": "EKEPSGTKEKKHQCDHCERCFYTR", "note": "[P3E]", "protein stability index": 3.83}
{"variant": "EKSPSGTKEKKHQCDHCERCFYTR", "note": "[P3S]", "protein stability index": 3.78}
{"variant": "EKCPSGTKEKKHQCDHCERCFYTR", "note": "[P3C]", "protein stability index": 3.98}
{"variant": "EKIPSGTKEKKHQCDHCERCFYTR", "note": "[P3I]", "protein stability index": 3.58}
{"variant": "EKDPSGTKEKKHQCDHCERCFYTR", "note": "[P3D]", "protein stability index": 4.19}
{"variant": "EKNPSGTKEKKHQCDHCERCFYTR", "note": "[P3N]", "protein stability index": 3.94}
{"variant": "EKAPSGTKEKKHQCDHCERCFYTR", "note": "[P3A]", "protein stability index": 4.29}
{"variant": "EKRPSGTKEKKHQCDHCERCFYTR", "note": "[P3R]", "protein stability index": 3.75}
{"variant": "EKGPSGTKEKKHQCDHCERCFYTR", "note": "[P3G]", "protein stability index": 3.63}
{"variant": "EKTPSGTKEKKHQCDHCERCFYTR", "note": "[P3T]", "protein stability index": 3.68}
{"variant": "EKWPSGTKEKKHQCDHCERCFYTR", "note": "[P3W]", "protein stability index": 3.13}
{"variant": "EKMPSGTKEKKHQCDHCERCFYTR", "note": "[P3M]", "protein stability index": 3.41}
{"variant": "EKYPSGTKEKKHQCDHCERCFYTR", "note": "[P3Y]", "protein stability index": 3.5}
{"variant": "KKPPSGTKEKKHQCDHCERCFYTR", "note": "[E1K]", "protein stability index": 2.98}
{"variant": "MKPPSGTKEKKHQCDHCERCFYTR", "note": "[E1M]", "protein stability index": 4.15}
{"variant": "FKPPSGTKEKKHQCDHCERCFYTR", "note": "[E1F]", "protein stability index": 2.75}
{"variant": "CKPPSGTKEKKHQCDHCERCFYTR", "note": "[E1C]", "protein stability index": 3.21}
{"variant": "PKPPSGTKEKKHQCDHCERCFYTR", "note": "[E1P]", "protein stability index": 3.22}
{"variant": "QKPPSGTKEKKHQCDHCERCFYTR", "note": "[E1Q]", "protein stability index": 3.87}
{"variant": "WKPPSGTKEKKHQCDHCERCFYTR", "note": "[E1W]", "protein stability index": 3.35}
{"variant": "VKPPSGTKEKKHQCDHCERCFYTR", "note": "[E1V]", "protein stability index": 3.57}
{"variant": "YKPPSGTKEKKHQCDHCERCFYTR", "note": "[E1Y]", "protein stability index": 3.04}
{"variant": "IKPPSGTKEKKHQCDHCERCFYTR", "note": "[E1I]", "protein stability index": 2.82}
{"variant": "AKPPSGTKEKKHQCDHCERCFYTR", "note": "[E1A]", "protein stability index": 3.43}
{"variant": "RKPPSGTKEKKHQCDHCERCFYTR", "note": "[E1R]", "protein stability index": 3.02}
{"variant": "SKPPSGTKEKKHQCDHCERCFYTR", "note": "[E1S]", "protein stability index": 3.11}
{"variant": "DKPPSGTKEKKHQCDHCERCFYTR", "note": "[E1D]", "protein stability index": 3.99}
{"variant": "HKPPSGTKEKKHQCDHCERCFYTR", "note": "[E1H]", "protein stability index": 3.54}
{"variant": "NKPPSGTKEKKHQCDHCERCFYTR", "note": "[E1N]", "protein stability index": 3.59}
{"variant": "LKPPSGTKEKKHQCDHCERCFYTR", "note": "[E1L]", "protein stability index": 3.62}
{"variant": "GKPPSGTKEKKHQCDHCERCFYTR", "note": "[E1G]", "protein stability index": 3.6}
